According to the RNAGym collection of RNA variant scans (doi:10.1073/pnas.2313332121):

B1: TPR t1 (parent)
chain: GACCAAUCUGCCCUCAGAGCUCGAGAACAUCUUCGGAUGCAGAGGAGGCAGGCUUCGGUGGCGCGAUAGCGCCAACGUCCUCAACCUCCAAUGCAUCCCACCACAUGAUGAUGCCUGAAGAGCCUUGGUUUUUUG

Variants of: B1
Experiment: polymerase ribozyme fitness, log enrichment relative to wild type (log ratio); higher = more active; in vitro selection for triplet polymerase activity
How it was run: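 Mutant libraries for each subunit of a heterodimeric triplet polymerase ribozyme were made by PCR and then transcribed. Each library underwent one round of in vitro selection in triplicate: annealing with a biotinylated primer, the partner subunit and triplets, frozen incubation at −7 °C, gel excision of extended constructs, streptavidin-bead capture and RT-PCR. Input and output libraries were Illumina-sequenced, and only genotypes with ≥10 input reads and ≥1 read per output were kept. Fitness is the logarithm, base 2, of genotype enrichment over wild-type enrichment, computed from inverse-variance-weighted replicate averages.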

Variant	polymerase ribozyme fitness (log ratio)
GACCAAUCUGCCCUCAGAGCUCGAGAACAUCUUCAGAUGCAGAGGAGGCAGGCUUCGGCGGCGCGAUAGCGCCAACGUCCUCAACCUCCAAUGCAUCCCACCACAUGAUGAUGCCGGAAGAUCGUUGGUUUUUUG [G35A U59C U116G G122U C124G]	-6.12
GACCAAUCUGCCCUCAGAGCUCGAGAACAUCUUCAGAUGCAGAGGAGGCAGGCUUCGGUGGCCCGAUAGCUCCAACGUCCUCAACCUCCAAUGCAUCCCACCACAUGAUGAUGACUGAAGAGCCUUGGUUUUUUG [G35A G63C G71U C114A]	-6.69
GACCAAUCUGCCCUCAGAGCUCGAGAACAUCUUCUGAUGCAGAAGAGGCAGGCUUCGGUGGCGCGACAGCGCCAACGUCCUCAACCUCCAAUGCAUCCCACCACGUGAUGAAGCCUGAAGAGCCUUGGUUUUUUG [G35U G44A U67C A105G U112A]	-6.79
GACCAAUCUGCCCUCAGAGCUCGAGAACAUCUUCUGAUGCAGAGGAGGCAGGCUUCGGUGGCGCGAUAGCGCGAACGUCCUCAACCUCCAAUGCAUCCCACCACAUGAUGAUGCCUGAAGAGCCUUGGUUUUUUG [G35U C73G]	-5.75
GACCAAUCUGCCCUCAGAGCUCGAGAACAUCUUCUGAUGCAGAGGAGGCAGGCUUCGGUGGCGCGAUAGCGCCAACGUCCUCAACCUCCAAUGCAUCCCACCACAUGAUGAUGCAUGAACAGCCUUGGUUUUUUG [G35U C115A G120C]	-5.77
GACCAAUCUGCCCUCAGAGCUCGAGAACAUCUUCUGAUGCAGAGGAGGCAGGCUUCGGUGGCGCGAUAGCGCCAACGUCCUUAACCUCCAAUGCAUCCCACCACAUGAUGAUGCAUGAAGAGCCUUGGUUUUUUG [G35U C82U C115A]	-6.43
GACCAAUCUGCCCUCAGAGCUCGAGAACAUCUUCCGAUGCAGAGGAGGCAGGCUUCGGUGGCGCGAUAGCGCCAACGUCCUCAACCUCCAAUGCAUCCCACCACAUGAUGAUGCCUGAAGAGCCUUGGGUUUUUG [G35C U129G]	-6.04
GACCAAUCUGCCCUCAGAGCUCGAGAACAUCUUCUGAUGCAGAGGAGGCAGGCUUCGGUGGCGCGAUAACGCCAACGUCCCCAACCUCCAAUGCAUCCCACCACAUGAUGAUUCCUGAAGAGCCUUGGUUUUUUG [G35U G69A U81C G113U]	-6.53
GACCAAUCUGCCCUCAGAGCUCGAGAACAUCUUCUGAUUCAGAGGAGGCAGGCUUCGGUGGCGCGAUAGCGUCAUCGUCCUCAACCUCCAAUGCAUCCCACCUCAUGAUGAUGCCUGAAGAGCCUUGGUUUUUUG [G35U G39U C72U A75U A103U]	-8.04
GACCAAUCUGCCCUCAGAGCUCGAGAACAUCUUCAGAUGCAGAGGAGGCAGGCUUCGGUGGCGCGAUAGCGCCAACGUCCUCAACCUCCAAUGCAUCCGACCACAUGAUGAUGCCUGAAGAGCCUUGGUUUUGUG [G35A C99G U133G]	-5.8
GACCAAUCUGCCCUCAGAGCUCGAGAACAUCUUCAGAUGCAGAGGAGCCAGGCUUCGGUGGCGCGAUAGCGCCAACGUCCUCAACCUCCAAUGCAUCCCACCACAUGAUGAUGCCUGAAGAGGCUUGGUUUUUUG [G35A G48C C123G]	-2.75
GACCAAUCUGCCCUCAGAGCUCGAGAACAUCUUCCGAUGCAGAGGAGGCAGGCUUCGGUGGCGCGAUAGCGCCAACGUCCUCAACAUCCAAUGCAUCCCAUCACAUGACGAUGCCUGAAGAGCGUUGGUUUUUUG [G35C C86A C101U U109C C124G]	-7.22
GACCAAUCUGCCCUCAGAGCUCGAGAACAUCUUCAGAUGCAGAGGAGGCAGGCUUCGGUGGCGCGAUAGCGCCAACGUCCUCAACCUUCAAUGCAUCCAACCACAUGAUGAUGCCUGAAGAGCCUUGGUUUUUUG [G35A C88U C99A]	-5.74
GACCAAUCUGCCCUCAGAGCUCGAGAACAUCUUCCGAUGCAGAGGAGGCAGGCUUCGGUGGCGCGAUAGCGUCAACGUCCUCAACCUCCAAUGCAUCCAACUACAUGAUGAUGCCCGAAGAGCCUUGGUGUUUUG [G35C C72U C99A C102U U116C U130G]	-6.33
GACCAAUCUGCCCUCAGAGCUCGAGAACAUCUUCCGAUGCAGAGGAGGCAGGCUUCGGUGGCGCGAUAGCGCCAACGUCCUCAACCUCCAAUGCAUCCCACCACAUGAUGAUGCCUGAAGAGCAUUGGUUUUUUG [G35C C124A]	-2.66
GACCAAUCUGCCCUCAGAGCUCGAGAACAUCUUCAGAUGCAGAGGAGGCAGGCUUCGGUGGCGCGAUAGCGCCAACGUCCUCAACCUUCAAUGCAUCCCACAACAUGAUGAUGCCUGAAGAGCCUUGGUUUUUUG [G35A C88U C102A]	-5.27
GACCAAUCUGCCCUCAGAGCUCGAGAACAUCUUCGAGUGCAGAGGAGGCAGGCUUCGGUGGCGCGAUAGCGUCAACGUCCUCAACCUCCAAUGCAUCCCACCACAUGAUGAUGCCUGAAGAACCUUGGUUUUUUG [G36A A37G C72U G122A]	-1.5
GACCAAUCUGCCCUCAGAGCUCGAGAACAUCUUCUGAUGCAGAGAAGGCAGGCUUCGGUGGCGCGAUAGCGCCAACGUCCACAACCUCAAAUGCAUCCCACCACAUGAUGAUGCCUGAAAAGCCUUGGUUUUUUG [G35U G45A U81A C89A G120A]	-4.73
GACCAAUCUGCCCUCAGAGCUCGAGAACAUCUUCUGAUGCAGAGGGGGCAGGCUUCGGUGGCGCGAUAUCGCCAACGUCCUCAACCUCCAAUGCAUCACACCACAUGAUGAUGCCUGAAGAGCCUUGGUUUUUUG [G35U A46G G69U C98A]	-0.783
GACCAAUCUGCCCUCAGAGCUCGAGAACAUCUUCAGAUGCACAGGAGGCAGGCUUCGGUGGCGCGAUAGCGCUAACGUCCUCAUCCUCCAAUGCAUCCCACCACAUGAUGAUGCCUGAAGAGUCUUGGUUUUUUG [G35A G42C C73U A84U C123U]	-6.85
GACCAAUCUGCCCUCAGAGCUCGAGAACAUCUUCAGAUGCAGAGGAGGCAGGCUUCGGUGGCGCGAUAGCGCCAACGCCCUCAACCUCCAAUGCAUCCCACCACAUGAUGAUGCCUGAAGAGCCUUGGUUUUUUG [G35A U78C]	-3.74
